# From publication PMC8041823, “Structural comparison of Acinetobacter baumannii β-ketoacyl-acyl carrier protein reductases in fatty acid and aryl polyene biosynthesis” (Scientific Reports, 2021)
# B1: holo ACP1 (acyl carrier protein 1 of the A. baumannii aryl polyene biosynthesis gene cluster) (natural protein)
# chain: MSNLADELKQMIIDVLALEDITIADIDTEAPLFGEGLGLDSIDALELGLALKKRYNIHLNAESDETKQHFKSIQSLVALVEAQQKS
# modifications: holo form (phosphopantetheine arm; made by co-expression with holo-ACP synthase AbAcpS); residue not stated
# Target: T1, Acinetobacter baumannii ApeQ (β-ketoacyl-ACP reductase of the aryl polyene biosynthesis gene cluster) (Acinetobacter baumannii (clinical CRAB …))
# T1 construct: ApeQ of A. baumannii, amplified from genomic DNA of the clinical carbapenem-resistant strain C1 with primers designed on the A. baumannii ACICU genome; NCBI ACC55845.1; Cloned NdeI/XhoI into pET28a; His-tag removed with thrombin; Residues of the thrombin site may be left at the N-terminus; also called AbApeQ; source: E. coli BL21 (DE3), purified (Chelating Sepharose, thrombin, Q-Sepharose anion …)
# Experiment: ITC; 2 mM holo ACP1 titrated into 0.1 mM reductase; 20 mM Tris pH 8, 100 mM NaCl, 2 mM NADPH; 25 °C; MicroCal 200
# Conditions: both partners purified
binder,measurement,value
B1,Kd,~80 µM
same,dH,3.05 kcal/mol
same,stoichiometry N,1.11
